Measurements: the supplement of paper PMC6757056
± gives the standard deviation of the averaged measurements.

B1: library; a variant is named by its letters at N, in order (parent)
chain: GCUGUCACCGAGAAACUGUGAAGUAUAUCUUAAACCUGGGCACUUAAAAGAUAUAUGGAGUUAGUAGUGCAACCUGCUCGGUCUGAUGAGUCCNNNNNNGGACGAAACAGC

How the values were obtained:
[1] = variants of: B1; test: FACS-Seq fitted mean relative fluorescence mCherry/BFP without ligand (log10 relative fluorescence); HEK293T; ligand: cyclic di-GMP (c-di-GMP-II aptamer); higher = higher reporter protein expression; conditions: ligand present: no
Summary of the method: (§1)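 HEK293T libraries were lentivirally transduced with an mCherry reporter carrying the ribozyme switch and an EF1α-BFP marker, enriched, and incubated for 48 h with or without ligand before sorting into 6 bins by mCherry/BFP. Genomic DNA from each bin was PCR-amplified, barcoded and sequenced on MiSeq. Fluorescence is the fitted normal mean of the bin counts. The fit used log10(mCherry/BFP), and means were scaled to five spiked-in control ribozymes.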

[2] = variants of: B1; test: normalized RNA/DNA level without ligand (relative to sTRSVctl = 100) (log10 (% of sTRSVctl)); HEK293T; ligand: cyclic di-GMP (c-di-GMP-II aptamer); higher = less ribozyme self-cleavage, higher mRNA level; conditions: reporter: mCherry (pCS4076), ligand present: no
Summary of the method: (§2)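 Library plasmids carrying ribozyme switches linked to mCherry, or to eGFP in some ligand experiments, were transfected into HEK293T at 4 µg per 6-well well, with any ligand added 1 h earlier. Seventy-two hours on, total RNA was extracted with EDTA and reverse-transcribed, amplified, barcoded and sequenced. RNA level was RNA over DNA reads normalized to a spiked-in non-cleaving sequence or to the top sequences, then scaled and log-transformed. The top set was 25 sequences, the transform was ×100 and log10, and sequences needed ≥100 DNA reads.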

[3] = variants of: B1; test: FACS-Seq fitted mean relative fluorescence mCherry/BFP with ligand (log10 relative fluorescence); HEK293T; ligand: cyclic di-GMP (c-di-GMP-II aptamer); ligand concentration (+) FACS-Seq: 1 mM; higher = higher reporter protein expression; conditions: ligand present: yes
Summary of the method: as §1

[4] = variants of: B1; test: normalized RNA/DNA level with ligand (relative to sTRSVctl = 100) (log10 (% of sTRSVctl)); HEK293T; ligand: cyclic di-GMP (c-di-GMP-II aptamer); ligand concentration (+) RNA-Seq: 1 mM; higher = less ribozyme self-cleavage, higher mRNA level; conditions: reporter: mCherry (pCS4076), ligand present: yes
Summary of the method: as §2

GCUGUCACCGAGAAACUGUGAAGUAUAUCUUAAACCUGGGCACUUAAAAGAUAUAUGGAGUUAGUAGUGCAACCUGCUCGGUCUGAUGAGUCCUCUUGAGGACGAAACAGC [UCUUGA]
FACS-Seq fitted mean (log10) [1]: -0.685 ± 0.031 | normalized RNA/DNA level without ligand (log10) [2]: 1.702 ± 0.0063 | FACS-Seq fitted mean (log10) [3]: -0.542 ± 0.027 | normalized RNA/DNA level with ligand (log10) [4]: 1.84 ± 0.14

GCUGUCACCGAGAAACUGUGAAGUAUAUCUUAAACCUGGGCACUUAAAAGAUAUAUGGAGUUAGUAGUGCAACCUGCUCGGUCUGAUGAGUCCGCUGUUGGACGAAACAGC [GCUGUU]
FACS-Seq fitted mean (log10) [1]: -0.596 ± 0.057 | normalized RNA/DNA level without ligand (log10) [2]: 1.63 ± 0.059 | FACS-Seq fitted mean (log10) [3]: -0.418 ± 0.084 | normalized RNA/DNA level with ligand (log10) [4]: 1.79 ± 0.082

GCUGUCACCGAGAAACUGUGAAGUAUAUCUUAAACCUGGGCACUUAAAAGAUAUAUGGAGUUAGUAGUGCAACCUGCUCGGUCUGAUGAGUCCGCUUCUGGACGAAACAGC [GCUUCU]
FACS-Seq fitted mean (log10) [1]: -0.15612 ± 8.5e-05 | normalized RNA/DNA level without ligand (log10) [2]: 1.74 ± 0.019 | FACS-Seq fitted mean (log10) [3]: 0.0598 ± 0.018 | normalized RNA/DNA level with ligand (log10) [4]: 1.87 ± 0.11

GCUGUCACCGAGAAACUGUGAAGUAUAUCUUAAACCUGGGCACUUAAAAGAUAUAUGGAGUUAGUAGUGCAACCUGCUCGGUCUGAUGAGUCCGCUUCAGGACGAAACAGC [GCUUCA]
FACS-Seq fitted mean (log10) [1]: -0.32 ± 0.093 | normalized RNA/DNA level without ligand (log10) [2]: 1.668 ± 0.013 | FACS-Seq fitted mean (log10) [3]: 0.00326 ± 0.00018 | normalized RNA/DNA level with ligand (log10) [4]: 1.81 ± 0.11

GCUGUCACCGAGAAACUGUGAAGUAUAUCUUAAACCUGGGCACUUAAAAGAUAUAUGGAGUUAGUAGUGCAACCUGCUCGGUCUGAUGAGUCCCCUUCUGGACGAAACAGC [CCUUCU]
FACS-Seq fitted mean (log10) [1]: -0.619 ± 0.0079 | normalized RNA/DNA level without ligand (log10) [2]: 1.6166 ± 0.0015 | FACS-Seq fitted mean (log10) [3]: -0.341 ± 0.038 | normalized RNA/DNA level with ligand (log10) [4]: 1.8 ± 0.063

GCUGUCACCGAGAAACUGUGAAGUAUAUCUUAAACCUGGGCACUUAAAAGAUAUAUGGAGUUAGUAGUGCAACCUGCUCGGUCUGAUGAGUCCCCUUCAGGACGAAACAGC [CCUUCA]
FACS-Seq fitted mean (log10) [1]: -0.388 ± 0.025 | normalized RNA/DNA level without ligand (log10) [2]: 1.6013 ± 0.00017 | FACS-Seq fitted mean (log10) [3]: -0.00437 ± 0.075 | normalized RNA/DNA level with ligand (log10) [4]: 1.72 ± 0.15

GCUGUCACCGAGAAACUGUGAAGUAUAUCUUAAACCUGGGCACUUAAAAGAUAUAUGGAGUUAGUAGUGCAACCUGCUCGGUCUGAUGAGUCCACUUAGGGACGAAACAGC [ACUUAG]
FACS-Seq fitted mean (log10) [1]: -0.25 ± 0.093 | normalized RNA/DNA level without ligand (log10) [2]: 1.59 ± 0.024 | FACS-Seq fitted mean (log10) [3]: 0.0154 ± 0.058 | normalized RNA/DNA level with ligand (log10) [4]: 1.75 ± 0.096

GCUGUCACCGAGAAACUGUGAAGUAUAUCUUAAACCUGGGCACUUAAAAGAUAUAUGGAGUUAGUAGUGCAACCUGCUCGGUCUGAUGAGUCCCCUUUAGGACGAAACAGC [CCUUUA]
FACS-Seq fitted mean (log10) [1]: -0.242 ± 0.11 | normalized RNA/DNA level without ligand (log10) [2]: 1.38 ± 0.062 | FACS-Seq fitted mean (log10) [3]: 0.149 ± 0.0049 | normalized RNA/DNA level with ligand (log10) [4]: 1.64 ± 0.1

GCUGUCACCGAGAAACUGUGAAGUAUAUCUUAAACCUGGGCACUUAAAAGAUAUAUGGAGUUAGUAGUGCAACCUGCUCGGUCUGAUGAGUCCCCUUAAGGACGAAACAGC [CCUUAA]
FACS-Seq fitted mean (log10) [1]: -0.397 ± 0.009 | normalized RNA/DNA level without ligand (log10) [2]: 1.45 ± 0.092 | FACS-Seq fitted mean (log10) [3]: -0.161 ± 0.043 | normalized RNA/DNA level with ligand (log10) [4]: 1.63 ± 0.12

GCUGUCACCGAGAAACUGUGAAGUAUAUCUUAAACCUGGGCACUUAAAAGAUAUAUGGAGUUAGUAGUGCAACCUGCUCGGUCUGAUGAGUCCCCUUAGGGACGAAACAGC [CCUUAG]
FACS-Seq fitted mean (log10) [1]: -0.183 ± 0.044 | normalized RNA/DNA level without ligand (log10) [2]: 1.64 ± 0.026 | FACS-Seq fitted mean (log10) [3]: 0.161 ± 0.06 | normalized RNA/DNA level with ligand (log10) [4]: 1.83 ± 0.12

GCUGUCACCGAGAAACUGUGAAGUAUAUCUUAAACCUGGGCACUUAAAAGAUAUAUGGAGUUAGUAGUGCAACCUGCUCGGUCUGAUGAGUCCUCUUAGGGACGAAACAGC [UCUUAG]
FACS-Seq fitted mean (log10) [1]: 0.0393 ± 0.27 | normalized RNA/DNA level without ligand (log10) [2]: 1.66 ± 0.05 | FACS-Seq fitted mean (log10) [3]: 0.27 ± 0.049 | normalized RNA/DNA level with ligand (log10) [4]: 1.8 ± 0.086

GCUGUCACCGAGAAACUGUGAAGUAUAUCUUAAACCUGGGCACUUAAAAGAUAUAUGGAGUUAGUAGUGCAACCUGCUCGGUCUGAUGAGUCCGCUUAGGGACGAAACAGC [GCUUAG]
FACS-Seq fitted mean (log10) [1]: -0.473 ± 0.076 | normalized RNA/DNA level without ligand (log10) [2]: 1.638 ± 0.0094 | FACS-Seq fitted mean (log10) [3]: -0.165 ± 0.16 | normalized RNA/DNA level with ligand (log10) [4]: 1.79 ± 0.069

GCUGUCACCGAGAAACUGUGAAGUAUAUCUUAAACCUGGGCACUUAAAAGAUAUAUGGAGUUAGUAGUGCAACCUGCUCGGUCUGAUGAGUCCGCUUAAGGACGAAACAGC [GCUUAA]
FACS-Seq fitted mean (log10) [1]: -0.0927 ± 0.12 | normalized RNA/DNA level without ligand (log10) [2]: 1.56 ± 0.088 | FACS-Seq fitted mean (log10) [3]: 0.338 ± 0.039 | normalized RNA/DNA level with ligand (log10) [4]: 1.7 ± 0.072
